The values below come from US20130217572A1, “SPECIFIC DELIVERY OF AGROCHEMICALS” (VRIJE UNIVERSITEIT BRUSSEL, priority 2010, published 2013).

Experiment [1] deals with T1, potato lectin (Sigma) (potato, UniProt Q9S8M0 23-323).
T1 construct: Bought glycoprotein, coated on ELISA plates
T1 sequence (looked up): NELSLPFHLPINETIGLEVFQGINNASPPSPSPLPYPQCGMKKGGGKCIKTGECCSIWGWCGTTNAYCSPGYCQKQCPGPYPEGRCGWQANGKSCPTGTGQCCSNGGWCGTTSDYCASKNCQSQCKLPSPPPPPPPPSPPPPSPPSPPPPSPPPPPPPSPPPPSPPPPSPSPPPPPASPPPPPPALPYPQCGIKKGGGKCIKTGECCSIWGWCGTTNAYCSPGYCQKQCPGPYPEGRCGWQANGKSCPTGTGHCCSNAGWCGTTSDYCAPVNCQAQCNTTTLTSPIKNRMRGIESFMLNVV
Put plainly: microcapsule retention; D: carboxyl capsules, EDC/Sulfo-NHS, 0.1 ug VHH/cm2; potato lectin coat 100 ug/ml; 100% coverage.

Experiment [2] addresses T1, potato lectin (Sigma). Description: microcapsule retention; K: amine capsules, BS3 two-step, 1 ug VHH/cm2; potato lectin coat 10 ug/ml; 100% coverage.
Experiment [3] has as its target T1, potato lectin (Sigma). Put plainly: microcapsule retention; L: amine capsules, BS3 two-step, 0.1 ug VHH/cm2; potato lectin coat 100 ug/ml; 10% coverage.
The subject of experiment [4] is gum arabic or potato lectin. Description: Lambda cyhalothrin amounts in wells with bound microcapsules (GC/MS-MS). The format is binding. To be noted: VHH coupled to lambda cyhalothrin microcapsules. The protocol: In another experiment lambda cyhalothrin amounts were also determined analytically. 100 μl/well aceton was added to washed wells with bound microcapsules and transferred to glass vials with 10 ml of hexane containing 0.05% triphenylphosphate as internal standard. The amount of lambda cyhalothrin was determined by GC/MS-MS analysis in comparison with calibration solutions. Controls for lambda cyhalothrin microcapsules included blank microcapsules to which no VHH were coupled and microcapsules to which unrelated VHH were coupled. Controls also included wells to which no gum arabic or potato lectin was coated.

Turning to Control VHH, the microcapsule counts (microcapsules) in the experiment with potato lectin (Sigma) [1] is 515; with potato lectin (Sigma) [2], 903; with potato lectin (Sigma) [3] it was 248.

B1: VHH 3E6 (VHH)
VHH: QVQLQESGGGLVQPGGTLSLSCAASGFNVRWYGMGWFRQAPGKEREGVACISALQETTAYADSVKGRFTLSRDNPKNTLSLQMNNLQPEDTGVYYCATTDCDDSSRMTYTSYLGQGTQVTVSS
notes: also called Monovalent VHH 3E6
Regarding B1, the “increase of amounts of lambda cyhalothrin in wells coated with antigen” value in experiment [4] (compared to blank microcapsules) turned out to be 23 fold; in experiment [4] (over blank wells not coated with antigen), 27 fold.
